US9254322B2, “Compositions comprising E-selectin antagonists and uses therefor” (The University of Queensland, priority 2007, dated 2016)

B1: pegylated G-CSF: recombinant human pegylated G-CSF (granulocyte colony stimulating factor), Neulasta from Amgen (protein, UniProt P09919 31-207, looked up)
Granulocyte …: TPLGPASSLPQSFLLKCLEQVRKIQGDGAALQEKLVSECATYKLCHPEELVLLGHSLGIPWAPLSSCPSQALQLAGCLSQLHSGLFLYQGLLQALEGISPELGPTLDTLQLDVADFATTIWQQMEELGMAPALQPTQGAMPAFASAFQRRAGGVLVASHLQSFLEVSYRVLRHLAQP
modifications: PEG (pegfilgrastim)
notes: recombinant human pegylated G-CSF (granulocyte colony stimulating factor), Neulasta from Amgen

Assays:
[1] = system: long-term reconstituting hematopoietic stem cells; assay: HSC cycling and number in vivo following cytotoxic insult with 5-fluorouracil in wild-type and E-selectin KO mice
Protocol: Adult mice (10-14 week-old) with homologous deletion of the E-selectin gene were administered intravenously a single dose of 5-FU at 150 mg/kg. At days 2 and 6 following 5-FU, mice were injected intraperitoneally BrdU 100 mg/kg followed by a continuous dose of 1 mg/mL in their drinking water at a concentration of 1 mg/mL. 18 hours following the injection of BrdU. Mice were sacrificed, their bone marrow cells collected as described above and stained with the following combination of antibodies: a) biotinylated antibodies against lineage-specific antigens CD3, CD5, B220/CD45R, CD11b, Gr-1/Ly-6C/G, CD41, Ter119 together with streptavidin conjugated to PercP-Cy5.5; b) fluorescein isothiocyanate (FITC) conjugated anti-CD48; c) phycoerythrin (PE) conjugated anti-CD150; d) PECy7 conjugated anti-Sca-1/Ly-6A/E; f) allophycocyanin (APC) conjugated anti-CD117 antibodies. True hematopoietic stem cells with the phenotype Lineage-negative, Sca1-positive, CD117-positive, CD41-negative, CD48-negative, CD150-positive were counted and sorted as described above. Sorted cells were cytospun on glass slides and stained with anti-BrdU antibodies as described above.

[2] = system: hematopoietic stem and progenitor cells; assay: G-CSF mobilization after 8 rounds of cyclophosphamide chemotherapy in wild-type and E-selectin KO mice; type: in vivo; conditions: mice pre-treated with 8 fortnightly rounds of cyclophosphamide 200 mg/kg, 6 weeks rest, then G-CSF; FIG. 8
Protocol: Wild-type and E-selectin KO mice were first administered 8 consecutive rounds of chemotherapy. The chemotherapeutic agent used was the alkylating agent cyclophosphamide administered as a single intraperitoneal injection at 200 mg/kg. Mice were given 8 rounds of cyclophosphamide chemotherapy at fortnightly intervals, then left to recover for 6 weeks before administration of G-CSF (total 1 mg/kg as above) and blood collected 3 days later at HSC mobilization. Blood was analyzed for total leukocyte count, Colony forming cells and phenotypic HSC as described above.

[3] = system: hematopoietic stem and progenitor cells; assay: Mobilization of HSC with recombinant human pegylated G-CSF in wild-type and E-selectin KO mice; type: in vivo, C57BL/6 mice; conditions: 3-day course, total 1 mg/kg s.c.
Protocol: Mobilization was induced in wild-type C57BL/6 mice and in C57BL/6 mice carrying homologous deletion of the E-selectin gene (E-selectin KO mice), using recombinant human G-CSF following a mobilization dosing and protocol similar to that used for human patients.
Adult mice (10- to 14-week old males) were administered recombinant human pegylated G-CSF (granulocyte colony stimulating factor) subcutaneously. Two doses were given 36 hours apart, each at 0.5 mg/kg. The G-CSF used was Neulasta, from Amgen. Neulasta was diluted to 0.1 mg/mL in sterile saline for injection and 100 μL used per injection into 20 g mice. In some experiments, a cohort of ‘control’ mice received saline injections alone.
Blood containing the mobilized HSC, was collected 3 days following the initial G-CSF injection using heparin as anticoagulant (13 units of sodium heparin/mL blood). Four different assays were performed on the blood to determine the extent of HSC mobilization. Some of these assays are surrogate measures of mobilization that are commonly used in the clinical setting; that is they measure associated changes, not HSC content directly. These are total blood leukocyte counts and numbers colony forming cells (CFC) in the blood. The third assay based on phenotypic analysis (expression of a panel of surface markers which define long-term reconstituting HSC), while directly measuring HSC, also detect some progenitor cell populations. Phenotypic enumeration is commonly used to determine HSC mobilization in human patients (a different array of cell-surface markers are used in mice). […]
A) Blood leukocyte counts were measured on a Sysmex KX21 automated haematology analyser (Roche).
B) Colony forming cell assay. […] The number of colony forming cells (CFC) per mL of blood can then been calculated. […]

| Molecule | HSC numbers per femur, E-selectin-/- versus WT mice ([1]; day 7 after single dose 150 mg/kg, FIG. 4) | BrdU incorporation in hematopoietic stem cells, E-selectin knock-out versus wild-type mice ([1]; days 3 and 7 after single dose 150 mg/kg, BrdU in last 17 hours, FIG. 3) | CFC per mL of peripheral blood, E-selectin KO versus wild-type mice [2] | phenotypic HSC per mL of peripheral blood, E-selectin KO versus wild-type mice [2] | number of phenotypic HSC per mL of mobilized blood, E-selectin KO versus wild-type mice ([3]; FIG. 7C) | number of CFC per mL of mobilized blood, E-selectin KO versus wild-type mice ([3]; blood collected 3 days after first injection, FIG. 7B) | number of functional long-term reconstituting HSC per mL of mobilized blood, E-selectin KO versus wild-type mice ([3]; competitive long-term reconstitution assay) |
| --- | --- | --- | --- | --- | --- | --- | --- |
| O=c1[nH]cc(F)c(=O)[nH]1 [5FU, 5-fluorouracil] | 5 fold | significantly lower | – | – | – | – | – |
| B1 | – | – | 5 fold | 2.5 fold | 2.5 fold | 2.5 fold | 12 fold |
